Data as given in patent US11180770B2, “HPPD variants and methods of use” (BASF Agricultural Solutions Seed US LLC, priority 2017, dated 2021).

What was measured:
T0 soybean plants = test: greenhouse spray test, leaf area damage score; assay type: in vivo; conditions: for leaf area damage score, 25th percentile / leaf area damage score, 75th percentile / leaf area damage score, 90th percentile / leaf area damage score, Median: transgenic soybean T0 events, five days after Cmpd. 1 at 300 g AI/ha; for leaf area damage score, 25th percentile: scale 0 (no damage) to 100 (complete bleaching)
Source text: Tolerant green shoots were transferred to rooting media or grafted. Rooted plantlets were transferred to the greenhouse after an acclimation period. Plants containing the transgene were then sprayed with HPPD inhibitor herbicides, as for example with mesotrione at a rate of 300-600 g AI/ha, or with Cmpd. 1 (2-chloro-3-(methylsulfanyl)-N-(1-methyl-1H-tetrazol-5-yl)-4-(trifluoromethyl)-benzamide) at a rate of 150 g-300 g AI/ha supplemented with ammonium sulfate and methyl ester rapeseed oil. Five to ten days after the application, the symptoms due to the application of the herbicide were evaluated and compared to the symptoms observed on wild-type plants under the same conditions. For example, T0 soybean plants having a “plant expression cassette”, which includes an HPPD inhibitor tolerant HPPD polypeptide of the present invention, were tested towards the tolerance of Cmpd. 1. Prior greenhouse trials with the transgenic plants, soybean transformants were routinely analyzed for the expression and presence of the transgenes using the ELISA protein detection method (see detailed description under item D and H). Only plants recovering in the selection media and having a detectable HPPD transgene protein expression were used for the herbicide tolerance analysis. A DeVries Tracker Sprayer was calibrated prior to each spraying. The chemical formulation used for Cmpd. 1 was supplemented with ammonium sulfate and methylated rape seed oil. Spray tests were conducted with a concentration, which equals to 300 grams AI per hectare (300 g AI/ha).
In greenhouse trials, independent T0 soybean events containing an exemplary mutant HPPD polypeptide were sprayed with the HPPD inhibitor herbicide Cmpd. 1 (2-chloro-3-(methylsulfanyl)-N-(1-methyl-1H-tetrazol-5-yl)-4-(trifluoromethyl)benzamide) at the rate of 300 grams AI/ha, supplemented with ammonium sulfate and methyl ester rapeseed oil. Five days after the application, the leaf damaged area due to the HPPD inhibitor herbicide is scored in a scale from 0 (no damage) to 100 (complete bleaching). Under those conditions, the wild-type plants were completely bleached and their damage scores were in the 95-100 range.
Table 5 presents the distribution of the HPPD inhibitor herbicide damage score data as percentile for exemplary mutant HPPD inhibitor herbicide tolerant polypeptides (SEQ ID NOs). The percentiles normalize ranks of the damage score from an individual plant in a population. […] The median is the 50th percentile. Half the values had higher damage scores; half had lower damage scores. The value of the 75th and 90th percentile is the damage score where 75% and 90% of the soybean events had lower damage scores, respectively. The difference between the 75th and 25th percentile is called the interquartile range and a marker to quantify scattering in the population. All constructs had only one single cassette insertion in the soybean genome.

HPPD polypeptides = test: coupled HPPD activity assay: turnover and residual turnover in crude extracts; assay type: biochemical, Pseudomonas fluorescens; conditions: for Turnover: absence of Cmpd. 1, kinetic changes in absorbance (OD) at 320 nm, 30 min; for Turnover / Residual turnover: high substrate concentration; for Residual turnover: presence of 100 μM Cmpd. 1, changes in absorbance (OD) at 320 nm; for turnover / residual turnover in the presence of Cmpd. 1 compared with a reference HPPD polypeptide, in words: comparison with the reference or parent polypeptide; for Residual turnover [%]: 100 μM Cmpd. 1, signal change with inhibitor divided by signal change without inhibitor

| Molecule | leaf damage score of wild-type plants (T0 soybean plants; wild-type soybean plants, 300 grams AI/ha, five days after application, scale 0-100) | Turnover (HPPD polypeptides) | Residual turnover (HPPD polypeptides) | leaf area damage score, 25th percentile (T0 soybean plants) | leaf area damage score, 75th percentile (T0 soybean plants; scale 0-100) | leaf area damage score, 90th percentile (T0 soybean plants; scale 0-100) | leaf area damage score, Median (T0 soybean plants; scale 0-100) | turnover / residual turnover in the presence of Cmpd. 1 compared with a reference HPPD polypeptide, in words (HPPD polypeptides) | Residual turnover [%] (HPPD polypeptides) |
| --- | --- | --- | --- | --- | --- | --- | --- | --- | --- |
| CSc1c(C(F)(F)F)ccc(C(=O)Nc2nnnn2C)c1Cl [Cmpd. 1, 2-chloro-3-(methylsulfanyl)-N-(1-methyl-1H-tetrazol-5-yl)-4-(trifluoromethyl)benzamide, reference compound] | 95-100 | 0.203 | 0.021 |  |  |  |  |  |  |
| SEQ ID NO: 47: mutant PfHPPD: 268A 270N 335P 336H 337S 340V 344Q 345M (protein, mutant HPPD polypeptide, mutant PfHPPD: 268A 270N 335P 336H 337S 340V 344Q 345M) MADLYENPMGLMGFEFIEFASPTPGTLEPIFEIMGFTKVATHRSKNVHLYRQGEINLILNNEPNSIASYFAAEHGPSVCGMAFRVKDSQKAYNRALELGAQPIHIDTGPMELNLPAIKGIGGAPLYLIDRFGEGSSIYDIDFVYLEGVERNPVGAGLKVIDHLTHNVYRGRMVYWANFYEKLFNFREARYFDIKGEYTGLTSKAMSAPDGMIRIPLNEESSKGAGQIEEFLMQFNGEGIQHVAFLTDDLVKTWDALKKIGMRFMTAPADNYYEMLEGRLPDHGEPVDQLQARGILLDGSSVEGDKRLLLQIFSETLMGPVFFEFIQRKGDDGFGPHSFKVLFEQMERDQVRRGVLTAD |  |  |  | 5.0 | 15.0 | 51.0 | 15.0 | significant increase in the residual turnover |  |
| 40 (protein, mutant HPPD polypeptide) MADLYENPMGLMGFEFIEFASPTPGTLEPIFEIMGFTKVATHRSKNVHLYRQGEINLILNNEPNSIASYFAAEHGPSVCGMAFRVKDSQKAYNRALELGAQPIHIDTGPMELNLPAIKGIGGAPLYLIDRFGEGSSIYDIDFVYLEGVERNPVGAGLKVIDHLTHNVYRGRMVYWANFYEKLFNFREARYFDIKGEYTGLTSKAMSAPDGMIRIPLNEESSKGAGQIEEFLMQFNGEGIQHVAFLTDDLVKTWDALKKIGMRFMTAPGDEYYEMLEGRLPDHGEPVDQLQARGILLDGSSVEGDKRLLLQIFSETLMGPVFFEFIQRKGDDGFGPDSFKVLFESVERDQVRRGVLTAD |  | 0.134 | 0.073 |  |  |  |  |  | 54 |
| 45 (protein, mutant HPPD polypeptide) MADLYENPMGLMGFEFIEFASPTPGTLEPIFEIMGFTKVATHRSKNVHLYRQGEINLILNNEPNSIASYFAAEHGPSVCGMAFRVKDSQKAYNRALELGAQPIHIDTGPMELNLPAIKGIGGAPLYLIDRFGEGSSIYDIDFVYLEGVERNPVGAGLKVIDHLTHNVYRGRMVYWANFYEKLFNFREARYFDIKGEYTGLTSKAMSAPDGMIRIPLNEESSKGAGQIEEFLMQFNGEGIQHVAFLTDDLVKTWDALKKIGMRFMTAPADNYYEMLEGRLPDHGEPVDQLQARGILLDGSSVEGDKRLLLQIFSETLMGPVFFEFIQRKGDDGFGPHSFKVLFEQVERDQVRRGVLTAD |  | 0.214 | 0.121 |  |  |  |  |  | 57 |
| 42 (protein, mutant HPPD polypeptide) MADLYENPMGLMGFEFIEFASPTPGTLEPIFEIMGFTKVATHRSKNVHLYRQGEINLILNNEPNSIASYFAAEHGPSVCGMAFRVKDSQKAYNRALELGAQPIHIDTGPMELNLPAIKGIGGAPLYLIDRFGEGSSIYDIDFVYLEGVERNPVGAGLKVIDHLTHNVYRGRMVYWANFYEKLFNFREARYFDIKGEYTGLTSKAMSAPDGMIRIPLNEESSKGAGQIEEFLMQFNGEGIQHVAFLTDDLVKTWDALKKIGMRFMTAPSDEYYEMLEGRLPDHGEPVDQLQARGILLDGSSVEGDKRLLLQIFSETLMGPVFFEFIQRKGDDGFGPHSFKVLFESVERDQVRRGVLTAD |  | 0.278 | 0.111 |  |  |  |  |  | 40 |
| SEQ ID NO: 2: prior art mutant HPPD polypeptide (WO2014/043435): 335P 336W 339A 340Q (protein, mutant HPPD polypeptide, prior art mutant HPPD polypeptide (WO2014/043435): 335P 336W 339A 340Q) MADLYENPMGLMGFEFIEFASPTPGTLEPIFEIMGFTKVATHRSKNVHLYRQGEINLILNNEPNSIASYFAAEHGPSVCGMAFRVKDSQKAYNRALELGAQPIHIDTGPMELNLPAIKGIGGAPLYLIDRFGEGSSIYDIDFVYLEGVERNPVGAGLKVIDHLTHNVYRGRMVYWANFYEKLFNFREARYFDIKGEYTGLTSKAMSAPDGMIRIPLNEESSKGAGQIEEFLMQFNGEGIQHVAFLTDDLVKTWDALKKIGMRFMTAPPDTYYEMLEGRLPDHGEPVDQLQARGILLDGSSVEGDKRLLLQIFSETLMGPVFFEFIQRKGDDGFGPWNFAQLFESIERDQVRRGVLTAD |  |  |  | 15.0 | 45.0 | 87.0 | 20.0 |  |  |
| SEQ ID NO: 66: mutant PfHPPD: 213K 268A 270S 335P 336H 337S 340V 344Q 345M (protein, mutant HPPD polypeptide, mutant PfHPPD: 213K 268A 270S 335P 336H 337S 340V 344Q 345M) MADLYENPMGLMGFEFIEFASPTPGTLEPIFEIMGFTKVATHRSKNVHLYRQGEINLILNNEPNSIASYFAAEHGPSVCGMAFRVKDSQKAYNRALELGAQPIHIDTGPMELNLPAIKGIGGAPLYLIDRFGEGSSIYDIDFVYLEGVERNPVGAGLKVIDHLTHNVYRGRMVYWANFYEKLFNFREARYFDIKGEYTGLTSKAMSAPDGMIKIPLNEESSKGAGQIEEFLMQFNGEGIQHVAFLTDDLVKTWDALKKIGMRFMTAPADSYYEMLEGRLPDHGEPVDQLQARGILLDGSSVEGDKRLLLQIFSETLMGPVFFEFIQRKGDDGFGPHSFKVLFEQMERDQVRRGVLTAD |  |  |  | 5.0 | 25.0 | 41.0 | 10.0 | increase significantly the turnover and the residual turnover |  |
| 41 (protein, mutant HPPD polypeptide) MADLYENPMGLMGFEFIEFASPTPGTLEPIFEIMGFTKVATHRSKNVHLYRQGEINLILNNEPNSIASYFAAEHGPSVCGMAFRVKDSQKAYNRALELGAQPIHIDTGPMELNLPAIKGIGGAPLYLIDRFGEGSSIYDIDFVYLEGVERNPVGAGLKVIDHLTHNVYRGRMVYWANFYEKLFNFREARYFDIKGEYTGLTSKAMSAPDGMIRIPLNEESSKGAGQIEEFLMQFNGEGIQHVAFLTDDLVKTWDALKKIGMRFMTAPRDEYYEMLEGRLPDHGEPVDQLQARGILLDGSSVEGDKRLLLQIFSETLMGPVFFEFIQRKGDDGFGPHSFKVLFESVERDQVRRGVLTAD |  | 0.280 | 0.105 |  |  |  |  |  | 38 |
| 43 (protein, mutant HPPD polypeptide) MADLYENPMGLMGFEFIEFASPTPGTLEPIFEIMGFTKVATHRSKNVHLYRQGEINLILNNEPNSIASYFAAEHGPSVCGMAFRVKDSQKAYNRALELGAQPIHIDTGPMELNLPAIKGIGGAPLYLIDRFGEGSSIYDIDFVYLEGVERNPVGAGLKVIDHLTHNVYRGRMVYWANFYEKLFNFREARYFDIKGEYTGLTSKAMSAPDGMIRIPLNEESSKGAGQIEEFLMQFNGEGIQHVAFLTDDLVKTWDALKKIGMRFMTAPADEYYEMLEGRLPDHGEPVDQLQARGILLDGSSVEGDKRLLLQIFSETLMGPVFFEFIQRKGDDGFGPHSFKVLFEQVERDQVRRGVLTAD |  | 0.190 | 0.110 |  |  |  |  |  | 58 |
| 44 (protein, mutant HPPD polypeptide) MADLYENPMGLMGFEFIEFASPTPGTLEPIFEIMGFTKVATHRSKNVHLYRQGEINLILNNEPNSIASYFAAEHGPSVCGMAFRVKDSQKAYNRALELGAQPIHIDTGPMELNLPAIKGIGGAPLYLIDRFGEGSSIYDIDFVYLEGVERNPVGAGLKVIDHLTHNVYRGRMVYWANFYEKLFNFREARYFDIKGEYTGLTSKAMSAPDGMIRIPLNEESSKGAGQIEEFLMQFNGEGIQHVAFLTDDLVKTWDALKKIGMRFMTAPGDEYYEMLEGRLPDHGEPVDQLQARGILLDGSSVEGDKRLLLQIFSETLMGPVFFEFIQRKGDDGFGPHSFKVLFEQVERDQVRRGVLTAD |  | 0.036 |  |  |  |  |  |  |  |
